Assay results from patent US9611303B2, “Modified biotin-binding protein” (Japan Tobacco Inc., priority 2009, dated 2017).

How the values were obtained:
Proteinase K = experiment: Protease resistance of LATM2 (SDS-PAGE); conditions: 5 μM Proteinase K, 30° C., 15 min, presence or absence of biotin
Procedure: Throughout the specification, “having protease resistance” refers to that a protein is not enzymatically decomposed or not substantially decomposed by protease treatment. The protease treatment is performed by, for example, proteinase K treatment at 30° C. for 15 min. The term “not enzymatically decomposed” refers to that bands of a tetramer, dimer, and/or monomer of the protein can be clearly detected by SDS-PAGE after enzyme treatment, as in wild-type TM2. That is, a protein not having protease resistance is decomposed into small molecules by protease treatment, and bands of the tetramer, dimer, and monomer are not detected by SDS-PAGE after the protease treatment. […] Accordingly, bands of the tetramer and/or the dimer or monomer generated by dissociation of the tetramer are detected by SDS-PAGE. […] of each of the LATM2s (TM2 S36A, TM2 […], TM2 […], TM2 […], TM2 […], TM2 S36A-[…], TM2 […], and […]) purified by biotin-agarose was subjected to a reaction in 50 mM Tris-HCl (pH 8.0) containing 5 μM Proteinase K and 5 mM CaCl2 at 30° C. for 15 min. […] Then, an SDS buffer was added to each reaction solution, followed by heat treatment at 95° C. for 10 min to terminate the reaction. The resulting sample was subjected to SDS-PAGE, followed by CBB staining.

[1] = Subunit association by FPLC on Sephacryl S-100HR; format: physicochemical; conditions: for Structure (identified by FPLC): Sephacryl S-100HR, 50 mM potassium phosphate, 500 mM NaCl; for Sephacryl (mL), elution peak position: tetramer 44 to 47 mL, dimer 51 to 54 mL, monomer 63 to 66 mL
Procedure: In order to analyze the subunit association conditions of LATM2, the molecular weight of each LATM2s was measured by FPLC. Sephacryl S-100HR (manufactured by GE Healthcare) was used as a column, a Gel Filtration Calibration Kit LMW (manufactured by GE Healthcare) was used as molecular weight markers, and 50 mM potassium phosphate containing 500 mM NaCl was used as a buffer.
The positions of the peaks of eluted tetramer were defined to be 44 to 47 mL after injection of WT-TM2 as a control. The peak of an eluted monomer appeared at around 63 to 66 mL and the peak of an eluted dimer appeared at around 51 to 54 mL, from result of loading the molecular weight markers.

[2] = Purification of LATM2 with biotin-agarose; format: binding
Procedure: Purification with biotin-agarose (manufactured by Sigma-Aldrich Corp.) was performed by the following procedure. After induced expression of 25 mL of a culture solution of E. coli for each LATM2, the E. coli cells were suspended in 1.5 mL of a 100 mM potassium phosphate buffer (pH 7.0), and then sonicated. To the supernatant of the disrupted cells. 400 μL of biotin-agarose was added, which was followed by upside-down mixing for 1 hr. […]
In TM2 S36A-T78A-D116A, the E. coli cells were suspended in 1.5 mL of 50 mM CAPS (pH 12) containing 50 mM NaCl, and then sonicated. To the disrupted cells, 400 μL of biotin-agarose was added, which was followed by upside-down mixing for 1 hr. The column was sufficiently washed with 50 mM CAPS (pH 12) containing 500 mM NaCl, and elution was then performed with 1 mL of PBS (pH 7.4) containing 10 mM biotin.
In TM2 S36A-D116A, the E. coli cells were suspended in 1.5 mL of a 100 mM potassium phosphate buffer (pH 4.0), and then sonicated. To the pupernatant of the disrupted cells, 400 μL of biotin-agarose was added. Washing was performed with a 100 mM potassium phosphate buffer (pH 4) containing 500 mM NaCl, and elution was performed with 1 mL of PBS (pH 7) containing 10 mM biotin. Biotin binding to LATM2 that has been eluted with an excess amount of biotin was removed by dialysis with a 20 mM potassium phosphate buffer overnight.
(§1) The recovery rate in Table 2 was calculated by dividing the amount of LATM2 protein after purification by the amount of LATM2 protein before purification and was expressed by percent by multiplying the quotient by 100. The degree of purification was the ratio of the amount of LATM2 protein to the total amount of proteins in the purified fraction and was expressed by percent by multiplying the ratio by 100. The recovery rates and the degrees of purification in biotin-agarose were the results after binding at pH 7 and elution with an excess amount of biotin.

[3] = Purification of LATM2 with 2-iminobiotin-agarose; format: binding; conditions: for Recovery rate (%): Iminobiotin-agarose, binding at pH 12, elution with 50 mM NH4OAC (pH 4)
Procedure: LATM2 was purified through a column charged with 2-iminobiotin-agarose (manufactured by Sigma-Aldrich Corp.) in accordance with the method by Hofmann, et al., (1980). IPTG was added to 25 mL of a culture solution of E. coli transformed with each LATM2 in a final concentration of 1 mM to induce expression. The E. coli cells were collected by centrifugation, suspended in 1.5 mL of 50 mM CAPS (pH 12) containing 50 mM NaCl, and then sonicated. To the supernatant of the disrupted cells, 500 μL of 2-iminobiotin-agarose was added, which was then packed in a column. The column was sufficiently washed with 50 mM CAPS (pH 12) containing 500 mM NaCl, and elution was then performed with 50 mM NH4OAC (pH 4).
as §1

[4] = Biotin-agarose, binding at pH 7, recovery with 10 mM biotin

Molecule	decomposition by Proteinase K (Proteinase K)	Structure (identified by FPLC) [1]	Sephacryl (mL), elution peak position [1]	Recover rate (%) [2, 4]	binding to 2-iminobiotin-agarose [3]	Note (Iminobiotin-agarose) ([3]; FT = column flow-through fraction)	Recovery rate (%) [3]	recovery rate by binding at pH 12, extraction with acetic acid ([2]; Biotin-agarose)	Note (Biotin-agarose) ([2]; binding at pH 7, recovery with 10 mM biotin, FT = flow-through)	recover rate by elution with acetic acid ([2]; Biotin-agarose, elution with acetic acid)	Structure (identified by FPLC) ([1]; listed as D116A)	Structure (identified by FPLC) ([1]; listed as S36A)	binding to biotin-agarose [2]	elution from biotin-agarose with an excess amount of biotin [2]
TM2 T78A-D116A: TM2 with 78th threonine and 116th aspartic acid replaced with alanine; SEQ ID NO: 22 (protein, Synthetic TM2 T78A-D116A) MSDVQSSLTGTWYNELNSKMELTANKDGTLTGKYLSKVGDVYVPYPLSGRYNLQPPAGQGVALGWAVSWENSKIHSAATWSGQFFSESSPVILTQWLLSSSTARGDVWESTLVGNASFTKTAPTEQQIAHAQLHCRAPRLK	hardly decomposed	Tetramer	46.37 mL	95%	did not bind	To FT	0%							
TM2P46T-T78A: TM2 with 46th proline replaced with threonine and 78th threonine with alanine; SEQ ID NO: 14 (protein, Synthetic TM2 P46T-T78A) MSDVQSSLTGTWYNELNSKMELTANKDGTLTGKYLSKVGDVYVPYTLSGRYNLQPPAGQGVALGWAVSWENSKIHSAATWSGQFFSESSPVILTQWLLSSSTARGDVWESTLVGNDSFTKTAPTEQQIAHAQLHCRAPRLK	hardly decomposed	Tetramer	46.05 mL	5%			95%	recovery rate: 70%	note eluted					
TM2P46T-T78A-D116A: TM2 with P46T, T78A and D116A replacements; SEQ ID NO: 18 (protein, Synthetic TM2 P46T-T78A-D116A) MSDVQSSLTGTWYNELNSKMELTANKDGTLTGKYLSKVGDVYVPYTLSGRYNLQPPAGQGVALGWAVSWENSKIHSAATWSGQFFSESSPVILTQWLLSSSTARGDVWESTLVGNASFTKTAPTEQQIAHAQLHCRAPRLK	hardly decomposed	Tetramer	48.24 mL	95%			95%							
TM2 W80K: TM2 in which the 80th tryptophan was replaced with lysine; amino acid sequence SEQ ID NO: 4 (protein, Synthetic TM2 W80K) MSDVQSSLTGTWYNELNSKMELTANKDGTLTGKYLSKVGDVYVPYPLSGRYNLQPPAGQGVALGWAVSWENSKIHSATTKSGQFFSESSPVILTQWLLSSSTARGDVWESTLVGNDSFTKTAPTEQQIAHAQLHCRAPRLK	hardly decomposed	Tetramer	44.4 mL	50%			95%			recover rate: 95%				
TM2P46T-D116A: TM2 with 46th proline replaced with threonine and 116th aspartic acid with alanine; SEQ ID NO: 16 (protein, Synthetic TM2 P46T-D116A) MSDVQSSLTGTWYNELNSKMELTANKDGTLTGKYLSKVGDVYVPYTLSGRYNLQPPAGQGVALGWAVSWENSKIHSATTWSGQFFSESSPVILTQWLLSSSTARGDVWESTLVGNASFTKTAPTEQQIAHAQLHCRAPRLK	hardly decomposed	Tetramer	46.23 mL	95%			95%							
TM2 D116A: TM2 in which the 116th aspartic acid was replaced with alanine; SEQ ID NO: 12 (protein, Synthetic TM2 D116A) MSDVQSSLTGTWYNELNSKMELTANKDGTLTGKYLSKVGDVYVPYPLSGRYNLQPPAGQGVALGWAVSWENSKIHSATTWSGQFFSESSPVILTQWLLSSSTARGDVWESTLVGNASFTKTAPTEQQIAHAQLHCRAPRLK	hardly decomposed	tetramer	46.22 mL	95%			95%				Tetramer			
TM2 S36A: TM2 in which the 36th serine was replaced with alanine; SEQ ID NO: 6 (protein, Synthetic TM2 S36A) MSDVQSSLTGTWYNELNSKMELTANKDGTLTGKYLAKVGDVYVPYPLSGRYNLQPPAGQGVALGWAVSWENSKIHSATTWSGQFFSESSPVILTQWLLSSSTARGDVWESTLVGNDSFTKTAPTEQQIAHAQLHCRAPRLK	hardly decomposed	tetramer	46.17 mL	95%			95%					Tetramer	efficiently adsorbs to biotin-agarose	eluted by addition of an excess amount of biotin
